Common to all, as to assay: BLI, IgG
Assay [1] has as its target T1, RSV postfusion F (postF), subtype A (respiratory syncytial virus, subtype A, UniProt P03420 26-513).
T1 construct: also called F ΔFP; Postfusion subtype A

Assay [2] deals with RSV prefusion F (preF), subtype B (respiratory syncytial virus, subtype B).
Assay [3] addresses RSV prefusion F (preF), subtype A (respiratory syncytial virus, subtype A, UniProt P03420 26-513).

B1: ADI-14400 (antibody, V domains shown)
VH: QVQLVQSGGGVVQPGRSLRLSSAASGFTFSSYAMHWVRQAPGKGLEWVAVISHDGSKYYADSVKGRFTISRDNSKSTLNLQMNSLRPEDTAVYYCARGGDVRLYDDSNGYHYDTYYFDYWGQGTLVTVSS
VL: EIVLTQSPSSLSASVGDRVTITCRASQGIRNDLGWYQQKPGKAPKLLIYAASTLQSGVPSRFSGSGSGTDFTLTISSLQPEDFATYYCLQDYNYPLTFGGGTKVEIK
notes: also called Ab 66
Regarding B1, in assay [1], the binding result is “no binding”. Moreover, the Kd turned out to be 0.451 nM in assay [2] and 0.29 nM in assay [3].

B2: ADI-14395 (antibody, V domains shown)
VH: EVQLVESGGGVVQPGRSLRLSCAASGFTFSSYAMHWVRQAPGKGLEWVAVISYDGSNKYYADSVKGRFTISRDNSKNTLYLQMNSLRAEDTAVYYCARDDTYYYDSSGYSAPFDYWGQGTLVTVSS
VL: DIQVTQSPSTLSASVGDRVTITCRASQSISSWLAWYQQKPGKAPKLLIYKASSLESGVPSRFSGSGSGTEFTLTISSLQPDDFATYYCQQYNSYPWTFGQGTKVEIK
notes: also called Ab 62
As to B2, the binding result in assay [1] is “no binding”. Also, binding in assay [3] was characterised by a dissociation constant (Kd) of 24.9 nM.

B3: ADI-14397 (antibody, V domains shown)
VH: EVQLVESGGGVVQPGRSLRLSCAASGFTFSSYAMHWVRQAPGKGLEWVAVISYDGSNKYYADSVKGRFTISRDNSKNTLYLQMNSLRAEDTAVYYCARDDTYYYDSNGYSAPFDYWGQGTLVTVSS
VL: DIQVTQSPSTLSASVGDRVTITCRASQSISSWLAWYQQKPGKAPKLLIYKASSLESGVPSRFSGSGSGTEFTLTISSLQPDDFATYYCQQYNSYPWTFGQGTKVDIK
notes: also called Ab 64
For the molecule B3, in assay [1], the binding result is on record as “no binding”. This molecule came in with a dissociation constant (Kd) in assay [3] of 28.5 nM.

B4: ADI-14408 (antibody, V domains shown)
VH: QVQLVQSGPALVKTTQTLTLTCTFSGFSLTTSGMCVSWIRQPPGKALEWLARIDWDDDKYYSTSLKTRLTISKDTSKNQVVLTLTNVDPVDTATYYCARMQKYDSSGYYLHYFDSWGQGTLVTVSS
VL: DIRLTQSPSSLSASVGDRVTIACRASQSISSYLNWYQQKPGKSPKVLIYAASILQTGVPSRFSGSGSGTDFTLTISSLQPEDFATYYCQQSYSINQYTFGQGTKVEIK
notes: also called Ab 74
Take B4: the Kd in assay [1] was found to be 2.14 nM; in assay [2], 12.8 nM; in assay [3], 8.53 nM.

B5: ADI-21010 (antibody, V domains shown)
VH: EVQLVESGGGVVQPGRSLRLSCAASGFSFSTYGMHWVRQAPGKGLEWVGVIWYDETTKYYADSVKGRFSISRDNSKNMVYVQMNSLRADDTALYYCAREVWGGVFDIWGQGTTVTVSS
VL: DIQMTQSPATLSASVGDRVTITCRASQNIVTWLAWYQQKPGKAPNLLIYKASSLESGVPSRFSGSGSGTEFTLTISSLQPDDFATYYCQHYNSYSGAFGQGTKVDIK
For B5, in assay [1], the binding result was “no binding”. In assay [3], this molecule returned a Kd of 3.58 nM.

B6: ADI-14396 (antibody, V domains shown)
VH: EVQLVESGGGVVQPGRSLRLSCAASGFTFSSYAMHWVRQAPGKGLEWVAVISYDGSNKYYADSVKGRFTISRDNSKNTLYLQMNSLRAEDTAVYYCARELRYFDWEYGGMDVWGQGTTVTVSS
VL: EIVLTQSPSSLSASVGDRVTITCQASQDISNYLNWYQQKPGKAPKLLIYDASNLETGVPSRFSGSGSGTDFTFTISSLQPEDIATYYCQQYDNLPMYTFGQGTKLEIK
notes: also called Ab 63
In the case of B6, the binding result in assay [1] and in assay [3] was “no binding” throughout. The molecule further showed a Kd in assay [2] of 15.5 nM.

B7: ADI-14407 (antibody, V domains shown)
VH: QVQLVQSGGGVVQPGRSLRLSCAASGFTFSSYGMHWVRQAPGKGLEWVAVIWFDGNNKEYADSVKGRFAISRDNSKNTLYLQMNSLRAEDTAVYYCARDLIPVTIFGVVNPYSYYGMDVWGQGTTVTVSS
VL: EIVMTQSPSSLSASVGDRVTITCRASQSISTYLNWYQQKPGTAPKLLIYAASSLESGVPSRLSGSGSGTEFILTISSLQREDFATYYCQQSYSTPPTFGQGTKVEIK
notes: also called Ab 73
With B7, the Kd in assay [1] came out at 0.378 nM; in assay [2] it was 11.4 nM; in assay [3], 6.28 nM.

B8: ADI-21006 (antibody, V domains shown)
VH: QVTLKESGPTLVKPTQTLTLTCTFSGFSLSISGVGVGWIRQPPGKALEWLAVMYWDDDKRYSPSLKTRLTITKDTSKNQVVLTMTNMAPVDTAIYYCAHLWFGEAAFDPWGQGTLVTVSS
VL: EIVLTQSPLSLPVTLRQTASISCRSGQSLLYSDGNTYLNWFQQRPGQSPRRLISIVSKRDSGVPDRFSGSGSGTDFTLKISRVEAEDVGVYYCMQGTHWPYTFGQGTKVEIK
Take B8: in assay [1], the binding result is “no binding”. In addition, the equilibrium dissociation constant (Kd) in assay [3] was 10.4 nM.

B9: ADI-14572 (antibody, V domains shown)
VH: QVQLVQSGGGLVKPGGSLRLSCAASGFTFSNAWISWVRQAPGKGLEWVGRIKSATDGGTTDYAAPVKGRFTISRDDSKNTLYLQMDSLKTEDTAVYYCTTSYPYFDWLPFSVDYWGQGTLVTVSS
VL: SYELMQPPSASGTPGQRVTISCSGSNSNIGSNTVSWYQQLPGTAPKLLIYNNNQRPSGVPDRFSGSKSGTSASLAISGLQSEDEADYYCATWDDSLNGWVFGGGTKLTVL
In turn, B9 registered a Kd in assay [1] of 17 nM. For the same molecule, the binding result in assay [3] is on record as “no binding”.

B10: ADI-14584 (antibody, V domains shown)
VH: QVQLVQSGAEVKKPGASVKVSCKASGFTFTNYGTSYGITWVRQAPGQGLEWMGWINTSNGNPNYAQKLQGRVTMTADTSTSTAYMELRSLISDDTAVYYCARGHRMVRGVVPTGYYGLDVWGQGTTVTVSS
VL: DIQLTQSPSSLSASVGDRVTITCRASQSISSYLNWYQQKPGKAPKLLIFAASNLQSGVPSRFSGSGSGTDFTLTISSLQPEDFATYYCQQSYITPWTFGQGTKVEIK
notes: also called Ab 113
B10: in assay [1], the binding result is reported as “no binding”. Also, the Kd in assay [2] was determined as 0.476 nM.

B11: ADI-21041 (antibody, V domains shown)
VH: EVQLVESGGVVVQPGGSLRLSCAASGFTFDDYTMHWVRQAPGKGLEWVSLISWVGDTTYYADSVKGRFTISRDNSKNSLYLQMNSLRTEDTALYYCAKGGYYDGSGYYYFDYWGQGTLVTVSS
VL: DIRLTQSPSSLSASVGDRVTITCRASQSISNYLNWYQQKPGKAPKLLMYAASSLQSGVPSRFSGSGSGTDFTLTISSLQPEDFATYSCQQSYSTPYTFGQGTKVEIK
Consider B11, for which the binding result in assay [1] was “no binding”. This molecule had an equilibrium dissociation constant (Kd) in assay [3] of 7.3 nM.

B12: ADI-14419 (antibody, V domains shown)
VH: EVQLVESGGGVVQPGGSLRLSCAASGFSFSDYGMHWVRQAPGKGLEWVSFIRYDASYKFYADSVKGRFTISRDNAKNTLYLQINSLRAEDTAVYYCAKEIYGSGSYYYYYYAIDVWGQGTTVTVSS
VL: EIVLTQSPGTLSLSPGERATLSCRASQSVSSSHLAWYQQKPGQAPRLLIYGASSRATGIPDRFSGSGSGTDFTLTISRLEPEDFAVYYCQQYFRSAWAFGQGTKVDIK
notes: also called Ab 85
With B12, the binding result in assay [1] is “no binding”. This molecule also displayed a Kd in assay [3] of 2.69 nM.

B13: ADI-14409 (antibody, V domains shown)
VH: QVQLVQSGGEVKKPGASVKVSCKASGYTFTYYGISWVRQAPGQGLEWMGWISAYNGNTNYEQKFQGRVTMTTDTSTGTAYMELRSLTSDDTAVYYCARDRIVVVTAANYYGLDVWGQGTTVTVSS
VL: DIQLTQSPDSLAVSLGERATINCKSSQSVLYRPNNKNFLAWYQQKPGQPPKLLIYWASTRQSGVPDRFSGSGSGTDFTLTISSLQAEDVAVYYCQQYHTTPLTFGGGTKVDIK
notes: also called Ab 75
Regarding B13, in assay [1], the binding result is given as “no binding”. Further, the Kd stood at 0.289 nM in assay [2] and 0.15 nM in assay [3].

B14: ADI-14401 (antibody, V domains shown)
VH: QVQLVQSGGGLVKPGGSLRLSCAASGFTFSSYSMHWVRQAPGKGLEWVSSISASSSYLNYADSVKGRFTISRDNAKKSLYLQLNTLRADDTAVYYCAREDHDSGTYYLNWFDPWGQGTLVTVSS
VL: QSVVTQPPSVSGAPGQRVTISCTGSSSNIGAGYDVHWYQQFPGTGPKLLIYGNSHRPSGVPDRFSGSKSGPSASLAITGLQAEDEADYYCQSYDSSLSGYVFGTGTKVTVL
notes: also called Ab 67
As for B14, the binding result in assay [1] is recorded as “no binding”. The results for the Kd in assay [2] and in assay [3] were 2.17 nM and 1.19 nM, respectively.

B15: ADI-14399 (antibody, V domains shown)
VH: EVQLLESGPGLVKPSQTLSLTCAVSGGSINSGRYSWSWIRQPPGKGLEWIGYIYYSGTTYYNPSLESRVTISRDTSKNQFSLNLSSVTAADTAVYYCARTNSADSYASGSHYIRPQYFDFWGQGTLVTVSS
VL: DIQLTQSPATLSLSPGERATLSCRASQSVSSYLAWYQQKPGQAPRLLIYGASNRATGIPARFSGSGSGTDFTLTISRLEPEDFAVYYCQQRSNWLTFGGGTKVEIK
notes: also called Ab 65
Regarding B15, the binding result in assay [1] is “no binding”. Further, the dissociation constant (Kd) came to 0.365 nM in assay [2] and 0.189 nM in assay [3].

B16: ADI-20977 (antibody, V domains shown)
VH: EVQLVESGGGLVQPGGSLRLSCAASGFTFTNYAMSWVRQAPGKGLEWVSGISGSGGSTYYADSVKGRFTISRDNSKNTLYLQMNSLRAEDTAVYYCAKDQGYAVVVADATRNLPPRRYGMDVWGQGTTVTVSS
VL: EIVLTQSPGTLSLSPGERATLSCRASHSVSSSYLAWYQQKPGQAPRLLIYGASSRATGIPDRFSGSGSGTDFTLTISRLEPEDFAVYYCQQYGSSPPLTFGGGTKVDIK
notes: also called Ab 230
Regarding B16, in assay [1], the binding result is on record as “no binding”. The same molecule displayed a Kd in assay [3] of 0.151 nM.

B17: ADI-14576 (antibody, V domains shown)
VH: QVQLVQSGAEVKKPGASVKVSCKASGYTFTSYGISWVRQAPGQGLEWMGWISAYNGNTNYAQKLQGRVTMTTDTSTSTAYMELRSLRSDDTAVYYCARDPPVIAAGDFQHWGQGTLVTVSS
VL: DIVLTQSPLSLPVTLGQPASISCRSSQSLVHSDGNTYLNWFQQRPGQSPRRLIYKVSNRDSGVPDRFSGSGSGTDFTLKISRVEAEDVGVYYCMQGTHWPPDFGQGTRLEIK
Turning to B17, in assay [1], the binding result is given as “no binding”. In addition, the Kd is 19.3 nM in assay [2] and 6.97 nM in assay [3].

B18: ADI-14394 (antibody, V domains shown)
VH: EVQLLESGGGLVKPGGSLRLSCAASGFTFSSYSMNWVRQAPGKGLEWVSSISSSSSYIYYADSVKGRFTISRDNAKNSLYLQMNSLRAEDTAVYYCARGSEYYFDYWGQGTLVTVSS
VL: QSVLTQPPSVSGAPGQRVTISCTGSSSNIGAGYDVHWYQQLPGTAPKLLIYGNSNRPSGVPDRFSGSKSGTSASLAITGLQAEDEADYYCQSYDSSLSVVFGGGTKVTVL
notes: also called Ab 61
In the case of B18, the binding result in assay [1] is “no binding”. Besides, in assay [3], binding was put at a Kd of 11.5 nM.

B19: ADI-14571 (antibody, V domains shown)
VH: QVQLVQSGAEVKKPGSSVKVSCKASGGTFSTYTITWVRQAPGQGLEWMGRIVPIFGVVNNAQKFLGRLTITADKSTSTAYMELSSLRSEDTAVYYCARIPCSGNCQDYYYGMDVWGQGTTVTVSS
VL: DIQLTQSPSFLSASVGDRVTITCRASQGISSYLVWYQQKPGKAPKLLIYAASTLQSGVPSRFSGSGSGTEFTLTISSLQPEDFATYYCQQLNNYPPTFGPGTKVDIK
Consider B19, for which, in assay [1], the binding result is reported as “no binding”. In assay [3], this molecule came in with a Kd of 2.91 nM.

(Values after patent US20260258115A1 (MAPP BIOPHARMACEUTICAL, published 2026).)
